Results reported in patent US20250145690A1 (US Dept. of Health and Human Services, published 2025).
Where a chain is given by its changes, count along the chain named.

T1: MERS-CoV spike protein (MERS-CoV, UniProt K9N5Q8 18-1291)
T1 sequence: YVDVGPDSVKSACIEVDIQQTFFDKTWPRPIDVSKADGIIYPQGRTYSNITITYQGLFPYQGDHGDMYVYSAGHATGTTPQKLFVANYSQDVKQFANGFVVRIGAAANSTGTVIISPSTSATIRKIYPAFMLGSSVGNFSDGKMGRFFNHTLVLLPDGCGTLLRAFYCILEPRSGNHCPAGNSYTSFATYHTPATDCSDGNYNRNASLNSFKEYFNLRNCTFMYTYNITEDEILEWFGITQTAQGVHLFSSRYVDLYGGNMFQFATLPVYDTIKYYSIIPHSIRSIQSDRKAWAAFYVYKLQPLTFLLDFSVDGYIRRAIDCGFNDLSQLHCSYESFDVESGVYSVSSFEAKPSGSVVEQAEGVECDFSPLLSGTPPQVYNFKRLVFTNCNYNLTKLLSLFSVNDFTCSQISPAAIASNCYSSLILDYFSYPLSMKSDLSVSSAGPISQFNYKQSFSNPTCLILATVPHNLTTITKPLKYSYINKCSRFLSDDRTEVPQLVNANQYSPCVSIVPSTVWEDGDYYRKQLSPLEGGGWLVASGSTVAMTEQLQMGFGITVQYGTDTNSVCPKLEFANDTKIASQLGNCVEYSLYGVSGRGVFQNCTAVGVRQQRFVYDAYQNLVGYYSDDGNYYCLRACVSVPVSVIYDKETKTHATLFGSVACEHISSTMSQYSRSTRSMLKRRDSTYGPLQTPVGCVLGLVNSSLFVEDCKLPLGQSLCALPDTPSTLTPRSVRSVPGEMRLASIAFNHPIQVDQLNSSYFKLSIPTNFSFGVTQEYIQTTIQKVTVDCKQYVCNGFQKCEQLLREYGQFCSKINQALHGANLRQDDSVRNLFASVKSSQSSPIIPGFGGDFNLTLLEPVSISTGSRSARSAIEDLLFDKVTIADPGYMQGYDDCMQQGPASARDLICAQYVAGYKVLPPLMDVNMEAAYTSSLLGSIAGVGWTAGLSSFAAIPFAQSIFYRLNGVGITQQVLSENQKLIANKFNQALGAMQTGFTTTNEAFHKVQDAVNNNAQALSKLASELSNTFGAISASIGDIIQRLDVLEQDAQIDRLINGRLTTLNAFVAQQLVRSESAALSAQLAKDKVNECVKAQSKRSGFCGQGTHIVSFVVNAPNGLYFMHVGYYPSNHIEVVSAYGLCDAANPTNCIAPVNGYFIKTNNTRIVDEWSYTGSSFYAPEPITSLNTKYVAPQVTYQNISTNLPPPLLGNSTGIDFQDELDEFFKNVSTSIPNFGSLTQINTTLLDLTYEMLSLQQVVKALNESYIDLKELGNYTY

T2: HCoV-HKU1 spike protein (Sino Biological 40606-V08B) (HCoV-HKU1, UniProt Q0ZME7 13-1295)
T2 sequence: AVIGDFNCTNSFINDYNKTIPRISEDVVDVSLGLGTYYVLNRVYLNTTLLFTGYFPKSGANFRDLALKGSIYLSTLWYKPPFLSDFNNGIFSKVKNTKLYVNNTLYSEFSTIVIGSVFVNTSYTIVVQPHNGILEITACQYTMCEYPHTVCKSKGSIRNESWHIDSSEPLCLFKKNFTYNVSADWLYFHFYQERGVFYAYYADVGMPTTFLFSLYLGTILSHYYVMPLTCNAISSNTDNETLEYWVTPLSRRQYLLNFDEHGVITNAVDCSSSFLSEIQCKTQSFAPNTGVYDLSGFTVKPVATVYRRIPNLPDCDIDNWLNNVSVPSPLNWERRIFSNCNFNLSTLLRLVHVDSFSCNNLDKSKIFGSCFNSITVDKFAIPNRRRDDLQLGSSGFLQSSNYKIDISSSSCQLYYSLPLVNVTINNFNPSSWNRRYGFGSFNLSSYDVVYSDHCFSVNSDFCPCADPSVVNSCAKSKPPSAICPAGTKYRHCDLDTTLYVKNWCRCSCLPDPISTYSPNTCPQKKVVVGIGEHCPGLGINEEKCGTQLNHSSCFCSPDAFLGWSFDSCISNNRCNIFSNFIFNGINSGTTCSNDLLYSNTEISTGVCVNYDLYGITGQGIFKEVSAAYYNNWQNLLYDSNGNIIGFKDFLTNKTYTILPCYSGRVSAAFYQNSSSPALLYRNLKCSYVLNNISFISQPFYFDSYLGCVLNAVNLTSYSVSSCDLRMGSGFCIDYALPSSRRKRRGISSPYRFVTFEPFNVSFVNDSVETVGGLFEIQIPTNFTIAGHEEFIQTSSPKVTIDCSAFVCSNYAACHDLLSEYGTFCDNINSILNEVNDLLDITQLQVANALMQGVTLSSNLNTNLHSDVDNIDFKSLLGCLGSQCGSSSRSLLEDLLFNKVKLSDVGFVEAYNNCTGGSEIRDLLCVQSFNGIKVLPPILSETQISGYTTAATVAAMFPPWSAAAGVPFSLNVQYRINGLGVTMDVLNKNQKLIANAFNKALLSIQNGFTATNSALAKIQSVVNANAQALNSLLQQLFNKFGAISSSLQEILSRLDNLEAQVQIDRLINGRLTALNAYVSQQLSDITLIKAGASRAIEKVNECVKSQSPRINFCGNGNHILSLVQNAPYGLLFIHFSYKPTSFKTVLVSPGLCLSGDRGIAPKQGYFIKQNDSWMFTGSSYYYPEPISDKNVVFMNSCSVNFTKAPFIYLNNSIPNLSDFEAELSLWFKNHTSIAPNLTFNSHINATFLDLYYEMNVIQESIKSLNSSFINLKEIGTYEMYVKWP

B1: COV57-38 (antibody, V domains shown)
VH: QVQLVESGGGVVQPGRSLRLSCEASGFNFNNYGMHWVRQAPGKGLEWVAVISYEGSKKYYEDSVRGRFTISRDFSKNTLYLQMNSLRAEDTAVYYCAKANEIFWLGQFKNDALDFWGQGTMVTVSS
VL: QSVLTQPPSASGTPGQRVAVSCSGSSSNIGTNFVNWYQHLPRTAPKLLIYRDNQRPSGVPDRFSGSKSGTSASLAISGLQSEDEADYYCAVWDDSLNGQVFGGGTKVTVL
B2: COV44-74 (antibody, V domains shown)
VH: QVQLVQSGAEVKKPGASVKVSCKASGYTFSSYYMNWVRQAPGQGLEWVGLISPSAGYTAYAQMFQGRVTMTRDTSTSTVYMELSSLRSEDTAVYYCARVAVAGPNDYWGQGTLVTVSS
VL: EIVLTQSPGTLSLSPGERATLSCRASQSISSSYLAWYQQKPGQAPRLVILAASTRATGIPDRFSGSGSGTDFTLTISRLEPEDFALYYCQHYRSSPPLWTFGQGTKVEIR
B3: COV49-54 (antibody, V domains shown)
VH: EVQLVESGGGLVQPGGSLRLSCAASGFIVSSNYMSWVRQAPGKGLEWVSMIYSGGSTVYADSVKGRFTISRDISKNTLYLQMNSLRAEDTAVYYCALETFDYWGQGTLVTVSS
VL: DIQMTQSPSSLSASVGDRVTITCRASQGITNHLAWYQQKPGKVPKLLIYAASTLQSGVPSRFSGSGYGTDFTLTISSLQPEDVASYYCQKYDSAPRTFGQGTKVEIK
B4: COV57-34 (antibody, V domains shown)
VH: QVQLVQSGTEVKKPGSSVKVSCRASGGTLSSYSVSWVRQAPGQGLEWMGRIIPILDKKTYAQKYQGRVTIIADTSTSTVYMELSSLKSDDSAVYYCTTFDYDTSGQRDQHDYWGQGTPVTVSS
VL: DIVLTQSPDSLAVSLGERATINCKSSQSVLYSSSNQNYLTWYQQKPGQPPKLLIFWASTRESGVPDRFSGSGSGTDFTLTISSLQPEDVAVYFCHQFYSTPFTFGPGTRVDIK
B5: COV57-13 (antibody, V domains shown)
VH: B4 VH with D89E, P118L
VL: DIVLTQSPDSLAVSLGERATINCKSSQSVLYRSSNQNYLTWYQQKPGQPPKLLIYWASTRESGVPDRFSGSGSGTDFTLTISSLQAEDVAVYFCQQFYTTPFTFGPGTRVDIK
B6: COV44-37 (antibody, V domains shown)
VH: QVQLVQSGAEVKKPGASVMLSCRASGYTFINDYMHWVRQAPGEGFEWMGIINPTGDGTKFAQKFQGRVTMTRDSSTTTVHMELRSLTSGDTAVYFCATGGRQSAFDIWGQGTVVIVSS
VL: DIVMTQSPLSLPVTPGESASISCRSSQSLLQNNGYNYLDWYLQKPGQSPQLLIYLGSYRASGVPDRFSGSGSGTDFTLKISRVEAEDVGVYYCVQAQQAPPLYTFGQGTKLQIK
B7: COV77-09 (antibody, V domains shown)
VH: EVQLVESGGGLVQPGRSLTLSCSGSGFTFGDYSMSWVRQAPGKGLEWLGFIRSQTYGGTTQYAASVQGRFTILRDDSKSIAYLQMNSLKTEDTAVYYCTRNYGVGDYWGQGTLVTVSS
VL: DIVMTQSPASLAVSLGERATIHCRSSLSVLNSSNNKNYLAWYQQKAGQPPKLLMYWASTRESGVPERFSGSGSGTDFTLTISSLEAGDVAVYYCQQYYDKLSLTFGGGTKVEIK

Key:
MERS-CoV spike protein = biological target: T1, MERS-CoV spike protein; assay: bead flow cytometry, AUC minus CD4
[1] = biological target: T2, HCoV-HKU1 spike protein (Sino …); assay: bead flow cytometry, AUC minus CD4

| Binder | binding result (MERS-CoV spike protein) | binding result [1] |
| --- | --- | --- |
| B1 | no binding (tested: 200 µg/mL) |  |
| B2 |  | no binding (tested: 200 µg/mL) |
| B3 | no binding (tested: 200 µg/mL) |  |
| B4 | no binding (tested: 200 µg/mL) |  |
| B5 | no binding (tested: 200 µg/mL) |  |
| B6 |  | no binding (tested: 200 µg/mL) |
| B7 | no binding (tested: 200 µg/mL) |  |
